According to patent US20080207488A1, “Method for Detecting Peptides Comprising a Cross-B Structure” (priority 2005, published 2008):

Target: T1, sRAGE (Homo sapiens, UniProt Q15109)
T1 construct: comprises three domains spanning amino-acid residues 23-325; His-tag with thrombin cleavage site (N); made in house; host or cells: 293E cells (printed as '293E hamster embryonic kidney cells')
Assay: Biacore surface plasmon resonance, binding to immobilized sRAGE
Conditions: Hb-AGE 32, amyloid γ-globulins 62.5, albumin-AGE 3.9 μg ml^−1
Description: The soluble extracellular part, of the receptor for AGE (sRAGE) was cloned, expressed and purified as follows (Q.-H. Zeng, Prof. P. Gros, Dept. of Crystal- & Structural Chemistry, Bijvoet Center for Biomolecular Research, Utrecht University, Utrecht, the Netherlands). Human cDNA of RAGE was purchased from RZPD (clone IRALp962E1737Q2, RZPD, Berlin, Germany). For PCRs, the gagatct[…] forward primer was used comprising a BglII site, and the gcggccgc[…] reverse primer with a NotI site. The soluble extracellular part of RAGE comprises three domains spanning amino-acid residues 23-325. The PCR product was cloned into a pTT3 vector, containing an amino-terminal His-tag and a thrombin cleavage site. The sRAGE was expressed in 293E hamster embryonic kidney cells at the ABC-protein expression facility (Utrecht University, Utrecht, the Netherlands). […]
Binding of cross-β structure conformation containing peptides/proteins was studied using surface plasmon resonance technology with a Biacore 2000 apparatus (Biacore AB, Uppsala, Sweden). […] Binding of albumin-AGE was determined with a solution of 3.9 μg ml^−1 albumin-AGE in running buffer. albumin-AGE was filtered on a Millex-GV 0.22 μm filter unit (Millipore). […] Binding of Hb-AGE was also tested after centrifugation for 10 min. at 16,000*g alternative to filtration. tPA activation before and after filtration was assessed with a Plg-activation assay. […]

T1 sequence (Q15109 23-325): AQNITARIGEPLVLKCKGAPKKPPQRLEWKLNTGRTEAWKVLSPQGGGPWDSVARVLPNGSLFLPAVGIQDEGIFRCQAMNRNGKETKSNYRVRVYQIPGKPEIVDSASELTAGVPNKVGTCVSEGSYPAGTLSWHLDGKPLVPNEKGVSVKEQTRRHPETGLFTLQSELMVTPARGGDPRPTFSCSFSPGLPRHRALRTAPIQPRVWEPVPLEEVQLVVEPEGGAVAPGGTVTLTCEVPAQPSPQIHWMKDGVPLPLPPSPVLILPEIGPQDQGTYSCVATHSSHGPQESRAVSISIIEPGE

binding to immobilized sRAGE: bind
Substance: albumin-AGE: advanced glycation end-product modified bovine serum albumin
